In doi:10.1101/2021.02.02.429416 one finds EC50 and Kd data, which are given here for 2 substances.

Experiment [1] addresses Aflibercept. The experiment is described as follows: ELISA.
Experiment [2] deals with Aflibercept. As to the kind of experiment: BLI. (In general: In BLI a coated tip is dipped into the sample, and binding shifts an interference pattern.)

Broadly, the EC50 is the concentration at which the effect is half-maximal. Read a low EC50 as higher potency in that assay. For Human VEGF-A121 (ligand), the EC50 in the experiment with Aflibercept [1] was determined as 1.63 nM.
By Kd is commonly meant the concentration at which binding is half-saturated. Low values mean a tighter complex, high ones a looser complex. With Human VEGF-A165 (ligand), in the experiment with Aflibercept [1], the EC50 came out at 1.69 nM. This substance also gave a Kd in the experiment with Aflibercept [2] of 0.00269 nM.
